# Test results from patent US20050282743A1, “Molecular interactions in cells” (Arbor Vita Corporation, priority 2001, published 2005).
# Where “and” joins values, the source holds several entries; their conditions need not be identical. Equal entries are not always repeated.
# B1: IL-8RA (peptide)
# peptide: ARHRVTSYTSSSVNVSSNL
# modifications: not checked
# B2: CD95 (peptide)
# peptide: KDITSDSENSNFRNEIQSLV
# modifications: not checked
# B3: SSTR2 (somatostatin recepor 2) (peptide)
# peptide: LNETTETQRTLLNGDLQTSI
# modifications: not checked
# Tests used:
# [1] = target: GST-PSD95 PDZ domains 1, 2, 3 (Homo sapiens), P78352; experiment: G' assay; further: key of the grades not given here
# [2] = target: T1, GST-PDZK1 PDZ domains 2, 3, 4, Q5T2W1; experiment: G' assay; further: key of the grades not given here
# T1 chain: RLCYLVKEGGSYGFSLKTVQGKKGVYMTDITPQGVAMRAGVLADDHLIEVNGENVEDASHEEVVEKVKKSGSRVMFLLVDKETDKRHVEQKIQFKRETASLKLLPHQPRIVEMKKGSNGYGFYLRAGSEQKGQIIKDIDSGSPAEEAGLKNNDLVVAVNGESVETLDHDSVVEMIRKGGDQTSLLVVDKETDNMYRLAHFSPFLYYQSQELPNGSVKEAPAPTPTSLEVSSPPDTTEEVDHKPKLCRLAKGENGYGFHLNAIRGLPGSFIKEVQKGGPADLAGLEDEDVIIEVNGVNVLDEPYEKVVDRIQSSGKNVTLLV
# [3] = target: T2, GST-Syntrophin 1 alpha PDZ domain 1 (Homo sapiens (Human)), Q13424; experiment: G' assay; further: key of the grades not given here
# T2 chain: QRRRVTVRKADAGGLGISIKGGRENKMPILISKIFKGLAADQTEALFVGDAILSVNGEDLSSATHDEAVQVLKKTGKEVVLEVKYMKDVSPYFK
# [4] = target: T3, GST-TIP1 PDZ domain 1 (Table 9 insert) (Homo sapiens (Human)), O14907; experiment: G' assay; further: key of the grades not given here
# T3 chain: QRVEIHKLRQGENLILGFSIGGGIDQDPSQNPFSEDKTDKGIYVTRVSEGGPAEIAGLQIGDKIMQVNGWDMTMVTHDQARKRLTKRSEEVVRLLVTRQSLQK
# [5] = target: T4, GST-novel PDZ gene PDZ domain 2 (Homo sapiens (Human)), Q9H5P4; experiment: G' assay; further: key of the grades not given here
# T4 chain: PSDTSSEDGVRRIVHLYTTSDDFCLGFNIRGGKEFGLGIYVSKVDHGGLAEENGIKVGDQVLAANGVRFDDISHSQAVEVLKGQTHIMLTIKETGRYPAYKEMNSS
# [6] = target: GST-BAI-1 Associated Protein PDZ domain 2 (Mus musculus (Mouse)), Q6RHR9; experiment: G' assay; further: key of the grades not given here
# [7] = target: T5, GST-KIAA0380 PDZ domain 1 (Homo sapiens (Human)), O15085; experiment: G' assay; further: key of the grades not given here
# T5 chain: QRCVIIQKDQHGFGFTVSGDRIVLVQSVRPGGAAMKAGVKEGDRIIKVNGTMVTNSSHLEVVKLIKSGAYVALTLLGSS
# [8] = target: GST-BAI-1 Associated Protein PDZ domain 6 (Homo sapiens (Human)), Q96QZ7; experiment: G' assay; further: key of the grades not given here
# [9] = target: T6, GST-KIAA0807(S) PDZ domain 1 (Homo sapiens (Human)), Q6P0Q8; experiment: G' assay; further: key of the grades not given here
# T6 chain: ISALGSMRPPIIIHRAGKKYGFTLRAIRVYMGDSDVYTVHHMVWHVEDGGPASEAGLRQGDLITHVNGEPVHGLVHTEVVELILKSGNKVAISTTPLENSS
# [10] = target: T7, GST-MUPP1 PDZ domain 13 (Homo sapiens (Human)), O75970; experiment: G' assay; further: key of the grades not given here
# T7 chain: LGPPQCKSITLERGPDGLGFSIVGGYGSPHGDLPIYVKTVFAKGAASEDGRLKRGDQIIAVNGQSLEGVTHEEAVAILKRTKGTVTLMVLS
# [11] = target: GST-KIAA1634 PDZ domain 5 (Homo sapiens (Human)), Q5TCQ9; experiment: G' assay; further: key of the grades not given here
# [12] = target: GST-KIAA1634 PDZ domain 1 (Homo sapiens (Human)), Q5TCQ9; experiment: G' assay; further: key of the grades not given here
# [13] = target: T8, GST-TIP-1 (Example 3) (human), O14907; experiment: G assay titration, PDZ 0.3 ug/ml
# T8 chain: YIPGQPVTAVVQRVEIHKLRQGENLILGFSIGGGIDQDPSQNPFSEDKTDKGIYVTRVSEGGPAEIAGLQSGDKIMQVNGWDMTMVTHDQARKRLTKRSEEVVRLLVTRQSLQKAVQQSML
# [14] = target: GST-DLG1 PDZ domains 1, 2 (Homo sapiens), Q12959; experiment: G assay titration, PDZ 0.3 ug/ml
# [15] = target: T9, GST-KIAA1634 PDZ domain 2 (Homo sapiens (Human)), Q5TCQ9; experiment: G' assay; further: key of the grades not given here
# T9 chain: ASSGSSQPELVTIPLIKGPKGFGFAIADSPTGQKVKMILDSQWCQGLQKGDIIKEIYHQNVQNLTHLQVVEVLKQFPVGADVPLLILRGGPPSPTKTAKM
# [16] = target: T10, GST-Outer Membrane PDZ domain 1 (Homo sapiens (Human)), P57105; experiment: G' assay; further: key of the grades not given here
# T10 chain: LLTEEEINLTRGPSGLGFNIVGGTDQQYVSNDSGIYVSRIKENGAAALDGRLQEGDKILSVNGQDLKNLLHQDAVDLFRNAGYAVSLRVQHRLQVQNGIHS
# [17] = target: T11, GST-DLG1 PDZ domain 2 (Homo sapiens), Q12959; experiment: G' assay; further: key of the grades not given here
# T11 chain: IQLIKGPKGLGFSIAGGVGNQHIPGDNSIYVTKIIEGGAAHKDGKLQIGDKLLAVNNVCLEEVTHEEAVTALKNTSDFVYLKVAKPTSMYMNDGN
# [18] = target: GST-BAI-1 Associated Protein PDZ domain 5 (Homo sapiens (Human)), Q96QZ7; experiment: G' assay; further: key of the grades not given here
# [19] = target: T12, GST-NeDLG PDZ domains 1, 2, Q92796; experiment: G' assay; further: key of the grades not given here
# T12 chain: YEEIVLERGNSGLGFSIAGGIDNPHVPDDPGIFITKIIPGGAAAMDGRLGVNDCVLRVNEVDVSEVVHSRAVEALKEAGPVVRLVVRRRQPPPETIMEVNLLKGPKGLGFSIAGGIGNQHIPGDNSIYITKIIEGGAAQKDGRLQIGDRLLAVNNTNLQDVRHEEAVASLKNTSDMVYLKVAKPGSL
# [20] = target: T13, GST-PTPL1 PDZ domain 2 (Homo sapiens (Human)), Q12923; experiment: G' assay; further: key of the grades not given here
# T13 chain: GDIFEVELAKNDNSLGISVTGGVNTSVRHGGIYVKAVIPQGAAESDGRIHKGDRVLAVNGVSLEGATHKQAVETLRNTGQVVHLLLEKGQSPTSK
# [21] = target: T14, GST-AIPC PDZ domain 1 (Homo sapiens (Human)), O15018; experiment: G' assay; further: key of the grades not given here
# T14 chain: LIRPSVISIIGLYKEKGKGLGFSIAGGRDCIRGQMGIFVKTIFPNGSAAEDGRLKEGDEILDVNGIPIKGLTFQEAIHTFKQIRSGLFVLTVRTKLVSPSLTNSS
# [22] = target: T15, GST-FLJ 10324 PDZ domain 1 [GST: P08515]; experiment: G' assay; further: key of the grades not given here
# T15 chain: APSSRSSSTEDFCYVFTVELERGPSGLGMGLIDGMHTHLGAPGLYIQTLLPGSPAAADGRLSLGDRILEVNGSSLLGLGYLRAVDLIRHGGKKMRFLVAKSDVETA
# [23] = target: T16, GST-DLG2 PDZ domain 2 (Homo sapiens (Human)), Q15700; experiment: G' assay; further: key of the grades not given here
# T16 chain: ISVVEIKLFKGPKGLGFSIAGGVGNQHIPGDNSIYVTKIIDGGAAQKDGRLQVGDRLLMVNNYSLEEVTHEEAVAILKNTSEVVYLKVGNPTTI
# [24] = target: T17, GST-PTPL1 PDZ domain 4 (Homo sapiens (Human)), Q12923; experiment: G' assay; further: key of the grades not given here
# T17 chain: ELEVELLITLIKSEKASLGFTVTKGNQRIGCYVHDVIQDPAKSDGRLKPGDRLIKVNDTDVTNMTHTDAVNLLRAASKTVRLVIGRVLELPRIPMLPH
# [25] = target: GST-DLG1 PDZ domains 1, 2 (Homo sapiens), Q12959; experiment: G' assay; further: key of the grades not given here
# [26] = target: GST-KIAA1634 PDZ domain 4 (Homo sapiens (Human)), Q5TCQ9; experiment: G' assay; further: key of the grades not given here
# [27] = target: T18, GST-MINT1 PDZ domain 2 (Mus musculus (Mouse)), B2RUJ5; experiment: G' assay; further: key of the grades not given here
# T18 chain: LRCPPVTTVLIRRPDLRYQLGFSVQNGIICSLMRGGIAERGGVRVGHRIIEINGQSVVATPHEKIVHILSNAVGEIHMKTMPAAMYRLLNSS
# [28] = target: T19, GST-KIAA1526 PDZ domain 1 (Homo sapiens (Human)), Q9P202; experiment: G' assay; further: key of the grades not given here
# T19 chain: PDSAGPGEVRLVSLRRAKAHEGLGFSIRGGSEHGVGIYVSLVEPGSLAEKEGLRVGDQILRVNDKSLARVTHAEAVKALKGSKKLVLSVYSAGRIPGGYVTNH
# [29] = target: T20, GST-Shank 1 PDZ domain 1 (Homo sapiens (Human)), Q9UPX8; experiment: G' assay; further: key of the grades not given here
# T20 chain: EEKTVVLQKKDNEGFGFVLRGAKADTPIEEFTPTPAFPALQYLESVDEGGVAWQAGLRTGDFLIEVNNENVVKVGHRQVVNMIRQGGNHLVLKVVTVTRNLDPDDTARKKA
# [30] = target: T21, GST-GRIP 1 PDZ domain 7 (Homo sapiens (Human)), Q9Y3R0; experiment: G' assay; further: key of the grades not given here
# T21 chain: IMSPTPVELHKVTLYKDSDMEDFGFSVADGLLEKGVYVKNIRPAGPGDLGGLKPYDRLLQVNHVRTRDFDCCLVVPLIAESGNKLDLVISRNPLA
# [31] = target: GST-KIAA807 [GST: P08515]; experiment: G' assay; further: key of the grades not given here
# [32] = target: T22, GST-KIAA0382 PDZ domain 1 (Canis lupus familiaris (Dog) (Canis familiaris)), A0A8I3; experiment: G' assay; further: key of the grades not given here
# T22 chain: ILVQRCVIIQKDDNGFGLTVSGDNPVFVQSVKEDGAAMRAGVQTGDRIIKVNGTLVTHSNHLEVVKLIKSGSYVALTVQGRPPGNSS
# [33] = target: T23, GST-MINT1 PDZ domains 1, 2, Q02410; experiment: G' assay; further: key of the grades not given here
# T23 chain: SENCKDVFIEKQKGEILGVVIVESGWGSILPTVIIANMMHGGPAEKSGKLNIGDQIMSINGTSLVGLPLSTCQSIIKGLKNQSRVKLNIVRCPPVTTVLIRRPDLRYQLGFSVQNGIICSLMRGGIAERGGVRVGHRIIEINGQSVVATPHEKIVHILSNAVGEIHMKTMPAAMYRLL
# [34] = target: T24, GST-KIAA1719 PDZ domain 6 (Homo sapiens (Human)), Q9C0E4; experiment: G' assay; further: key of the grades not given here
# T24 chain: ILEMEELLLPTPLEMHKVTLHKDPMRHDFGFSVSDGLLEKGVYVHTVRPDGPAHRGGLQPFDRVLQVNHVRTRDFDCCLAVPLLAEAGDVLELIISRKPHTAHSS
# Chain of GST-PSD95 PDZ domains 1, 2, 3 (Homo sapiens), P78352 (P78352 62-395): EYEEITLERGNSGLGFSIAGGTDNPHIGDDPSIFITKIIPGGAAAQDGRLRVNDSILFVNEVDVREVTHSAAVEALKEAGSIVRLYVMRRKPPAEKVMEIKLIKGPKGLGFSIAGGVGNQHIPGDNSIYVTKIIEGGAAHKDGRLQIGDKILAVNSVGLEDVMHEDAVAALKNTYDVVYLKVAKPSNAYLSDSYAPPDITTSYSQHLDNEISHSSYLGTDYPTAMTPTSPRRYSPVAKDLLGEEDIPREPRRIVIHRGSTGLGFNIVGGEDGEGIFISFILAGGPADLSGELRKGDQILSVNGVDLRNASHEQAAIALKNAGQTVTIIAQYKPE
# Chain of GST-KIAA1634 PDZ domain 1 (Homo sapiens (Human)), Q5TCQ9 (Q5TCQ9 401-502): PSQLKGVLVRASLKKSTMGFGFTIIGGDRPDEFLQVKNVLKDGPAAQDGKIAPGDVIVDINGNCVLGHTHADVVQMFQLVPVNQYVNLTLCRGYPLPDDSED
# Chain of GST-BAI-1 Associated Protein PDZ domain 2 (Mus musculus (Mouse)), Q6RHR9 (Q6RHR9 455-558): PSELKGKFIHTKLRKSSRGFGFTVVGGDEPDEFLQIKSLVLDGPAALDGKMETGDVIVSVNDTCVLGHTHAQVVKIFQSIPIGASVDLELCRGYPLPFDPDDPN
# Chain of GST-KIAA1634 PDZ domain 5 (Homo sapiens (Human)), Q5TCQ9 (Q5TCQ9 other isoform, or with tags, fused parts or gaps): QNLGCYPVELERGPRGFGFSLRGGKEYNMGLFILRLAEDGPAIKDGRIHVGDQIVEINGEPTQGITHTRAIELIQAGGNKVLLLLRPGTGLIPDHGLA
# Chain of GST-BAI-1 Associated Protein PDZ domain 6 (Homo sapiens (Human)), Q96QZ7 (Q96QZ7 1143-1233): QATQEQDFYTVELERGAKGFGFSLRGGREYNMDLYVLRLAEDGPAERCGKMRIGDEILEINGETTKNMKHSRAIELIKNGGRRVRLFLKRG
# Chain of GST-KIAA1634 PDZ domain 4 (Homo sapiens (Human)), Q5TCQ9 (Q5TCQ9 844-945): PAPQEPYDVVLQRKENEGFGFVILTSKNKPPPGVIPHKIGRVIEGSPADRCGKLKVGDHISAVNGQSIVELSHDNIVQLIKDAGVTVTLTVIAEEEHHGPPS
# Chain of GST-KIAA807 [GST: P08515] (P08515 whole entry, the tested form may be a part): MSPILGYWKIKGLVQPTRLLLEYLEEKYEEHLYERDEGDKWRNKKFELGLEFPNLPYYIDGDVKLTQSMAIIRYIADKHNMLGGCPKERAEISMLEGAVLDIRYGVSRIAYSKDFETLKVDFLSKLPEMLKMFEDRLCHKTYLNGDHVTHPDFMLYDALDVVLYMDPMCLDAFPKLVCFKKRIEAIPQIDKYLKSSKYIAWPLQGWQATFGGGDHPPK
# Chain of GST-BAI-1 Associated Protein PDZ domain 5 (Homo sapiens (Human)), Q96QZ7 (Q96QZ7 988-1099): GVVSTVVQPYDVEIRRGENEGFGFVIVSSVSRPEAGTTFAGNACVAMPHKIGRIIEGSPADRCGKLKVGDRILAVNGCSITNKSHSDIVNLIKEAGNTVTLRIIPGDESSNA
binder,measurement,setting,value
B1,Classification,[1],1 A450 class
same,Classification,[2],1 A450 class
same,Classification,[3],1 A450 class
same,Classification,[4],1 A450 class
same,Classification,[5],1 A450 class
same,Classification,[6],1 A450 class
same,Classification,[7],1 A450 class
same,Classification,[8],1 A450 class
same,Classification,[9],1 A450 class
same,Classification,[10],1 A450 class
same,Classification,[11],1 A450 class
same,Classification,[12],1 A450 class
B2,Kd,[13],20 µM and 25 µM
same,maximum OD (450 nm),[13],2.6 OD and 3.5 OD
same,Kd,[14],15 µM and 20 µM
same,maximum OD (450 nm),[14],2.6 OD and 2.1 OD
same,Classification,[1],1 A450 class
same,Classification,[15],1 A450 class
same,Classification,[16],1 A450 class
same,Classification,[17],1 A450 class
same,Classification,[18],3 A450 class
same,Classification,[19],1 A450 class
same,Classification,[20],3 A450 class
same,Classification,[21],1 A450 class
same,Classification,[22],1 A450 class
same,Classification,[23],1 A450 class
same,Classification,[24],1 A450 class
same,Classification,[12],1 A450 class
same,Classification,[25],2 A450 class
same,Classification,[26],1 A450 class
B3,Classification,[27],1 A450 class
same,Classification,[28],1 A450 class
same,Classification,[29],1 A450 class
same,Classification,[30],1 A450 class
same,Classification,[9],2 A450 class
same,Classification,[31],2 A450 class
same,Classification,[32],1 A450 class
same,Classification,[33],1 A450 class
same,Classification,[34],1 A450 class
